In this assay the target is bovine lactoferrin (Lf) (bovine). Description: […]; 20 mM HEPES pH 7.4, 150 mM NaCl.

By stoichiometry N is commonly meant the number of molecules, sites or subunits per partner or assembly.

As to “C-terminal α-helical domain (CaHD) of Moraxella bovis LbpB (domain or fragment)”, the stoichiometry N was 1.
